Test results from PMC10770632 (STAR Protocols, 2023).

Target: T1, D3 fragment of DROSHA (amino acids 390–1365) (human, UniProt Q9NRR4 390-1365)
T1 sequence (looked up): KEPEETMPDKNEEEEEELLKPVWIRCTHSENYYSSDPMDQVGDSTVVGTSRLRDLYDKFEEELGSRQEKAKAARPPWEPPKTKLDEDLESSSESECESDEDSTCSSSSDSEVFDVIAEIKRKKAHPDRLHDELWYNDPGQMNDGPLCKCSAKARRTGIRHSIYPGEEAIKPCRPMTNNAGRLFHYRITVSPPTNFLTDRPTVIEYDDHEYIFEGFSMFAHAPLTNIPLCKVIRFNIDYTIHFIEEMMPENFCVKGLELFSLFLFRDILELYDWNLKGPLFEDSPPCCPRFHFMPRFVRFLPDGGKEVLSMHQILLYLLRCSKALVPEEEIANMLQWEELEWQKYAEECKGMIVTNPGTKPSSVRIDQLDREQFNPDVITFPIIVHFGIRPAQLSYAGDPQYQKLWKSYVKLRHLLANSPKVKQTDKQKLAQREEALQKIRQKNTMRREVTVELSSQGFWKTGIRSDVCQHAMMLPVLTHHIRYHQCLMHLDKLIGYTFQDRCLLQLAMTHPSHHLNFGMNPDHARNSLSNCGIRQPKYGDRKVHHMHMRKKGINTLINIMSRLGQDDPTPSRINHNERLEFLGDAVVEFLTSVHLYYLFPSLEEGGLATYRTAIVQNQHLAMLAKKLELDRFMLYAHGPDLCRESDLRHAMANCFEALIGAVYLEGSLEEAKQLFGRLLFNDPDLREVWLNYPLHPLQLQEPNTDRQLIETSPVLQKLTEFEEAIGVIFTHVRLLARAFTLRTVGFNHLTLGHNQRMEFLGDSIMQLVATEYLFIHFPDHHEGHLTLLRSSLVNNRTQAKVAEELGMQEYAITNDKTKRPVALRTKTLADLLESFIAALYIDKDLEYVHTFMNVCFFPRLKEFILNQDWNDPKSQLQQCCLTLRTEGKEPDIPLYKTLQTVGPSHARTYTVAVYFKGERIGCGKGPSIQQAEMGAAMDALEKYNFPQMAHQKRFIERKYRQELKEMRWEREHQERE
Assay: reconstitution by mixing purified proteins

binding result: binds
B1: G4 fragment of DGCR8 (amino acids 285–750), dimeric (domain or fragment, human, UniProt Q8WYQ5 285-750, looked up)
chain: MTKIKTVLKSRGRPPTEPLPDGWIMTFHNSGVPVYLHRESRVVTWSRPYFLGTGSIRKHDPPLSSIPCLHYKKMKDNEEREQSSDLTPSGDVSPVKPLSRSAELEFPLDEPDSMGADPGPPDEKDPLGAEAAPGALGQVKAKVEVCKDESVDLEEFRSYLEKRFDFEQVTVKKFRTWAERRQFNREMKRKQAESERPILPANQKLITLSVQDAPTKKEFVINPNGKSEVCILHEYMQRVLKVRPVYNFFECENPSEPFGASVTIDGVTYGSGTASSKKLAKNKAARATLEILIPDFVKQTSEEKPKDSEELEYFNHISIEDSRVYELTSKAGLLSPYQILHECLKRNHGMGDTSIKFEVVPGKNQKSEYVMACGKHTVRGWCKNKRVGKQLASQKILQLLHPHVKNWGSLLRMYGRESSKMVKQETSDKSVIELQQYAKKNKPNLHILSKLQEEMKRLAEEREETR
